Test system: Escherichia coli TOP10
Assay: shrunken log2 fold change of peptide-encoding DNA abundance (4.5 h post-induction vs induction); higher = less antimicrobial activity (less host growth inhibition)
Conditions: time post-induction: 4.5 h; library: site-saturation at positions 5, 18, 19, 20
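Further: peptides expressed intracellularly from a pBAD plasmid library in pooled LB shake-flask culture, induced with 0.3% L-arabinose, DNA abundance read by NGS, three biological replicates, DESeq2 with apeglm shrinkage.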

RRIRGRPPRLPRPRPRPGKSPRP was tested, and the “shrunken log2 fold change” value was 0.176.

For RRIRTRPPRLPRPRPRPDRRPRP, the “shrunken log2 fold change” value was 0.0647.

RRIRLRPPRLPRPRPRPFGAPRP was tested, and the “shrunken log2 fold change” value was -0.0596.

With RRIRNRPPRLPRPRPRPFRDPRP the “shrunken log2 fold change” value was 0.0452.

For RRIRIRPPRLPRPRPRPHYPPRP, the “shrunken log2 fold change” value was -0.32.

In the case of RRIRMRPPRLPRPRPRPVCRPRP, the “shrunken log2 fold change” value is reported as 1.48.

In the case of RRIRWRPPRLPRPRPRPYLDPRP, the “shrunken log2 fold change” value is reported as -0.33.

With RRIRKRPPRLPRPRPRPDMIPRP the “shrunken log2 fold change” value was 0.013.

For RRIRCRPPRLPRPRPRPDISPRP, the “shrunken log2 fold change” value was 0.0772.

RRIRWRPPRLPRPRPRPFRRPRP was tested, and the “shrunken log2 fold change” value was -0.134.

In the case of RRIRIRPPRLPRPRPRPTSAPRP, the “shrunken log2 fold change” value is reported as 0.065.

With RRIRVRPPRLPRPRPRPVESPRP the “shrunken log2 fold change” value was -0.0208.

In the case of RRIRVRPPRLPRPRPRPCTQPRP, the “shrunken log2 fold change” value is reported as -0.322.

RRIRVRPPRLPRPRPRPVEEPRP was tested, and the “shrunken log2 fold change” value was -0.143.

With RRIRARPPRLPRPRPRPTILPRP the “shrunken log2 fold change” value was 0.344.

For RRIRQRPPRLPRPRPRPWIKPRP, the “shrunken log2 fold change” value was -0.0062.

RRIRKRPPRLPRPRPRPMWDPRP was tested, and the “shrunken log2 fold change” value was -0.0178.

RRIRIRPPRLPRPRPRPNLPPRP was tested, and the “shrunken log2 fold change” value was -0.173.

RRIRGRPPRLPRPRPRPASDPRP was tested, and the “shrunken log2 fold change” value was 0.987.

RRIRWRPPRLPRPRPRPSVKPRP was tested, and the “shrunken log2 fold change” value was -0.159.

For RRIRARPPRLPRPRPRPRNYPRP, the “shrunken log2 fold change” value was 0.0668.

In the case of RRIRSRPPRLPRPRPRPMLSPRP, the “shrunken log2 fold change” value is reported as 0.149.

RRIRDRPPRLPRPRPRPCLFPRP was tested, and the “shrunken log2 fold change” value was 0.076.

RRIRGRPPRLPRPRPRPYWVPRP was tested, and the “shrunken log2 fold change” value was -0.178.

For RRIRHRPPRLPRPRPRPYRRPRP, the “shrunken log2 fold change” value was -0.142.

With RRIRNRPPRLPRPRPRPEMWPRP the “shrunken log2 fold change” value was -0.0348.

In the case of RRIRCRPPRLPRPRPRPMWDPRP, the “shrunken log2 fold change” value is reported as -0.317.

In the case of RRIRYRPPRLPRPRPRPQGEPRP, the “shrunken log2 fold change” value is reported as -0.325.

For RRIRIRPPRLPRPRPRPVCQPRP, the “shrunken log2 fold change” value was -0.202.

For RRIRWRPPRLPRPRPRPVEFPRP, the “shrunken log2 fold change” value was -0.177.

With RRIRVRPPRLPRPRPRPFANPRP the “shrunken log2 fold change” value was -0.0887.

RRIRERPPRLPRPRPRPWEYPRP was tested, and the “shrunken log2 fold change” value was 0.0155.

With RRIRCRPPRLPRPRPRPDEEPRP the “shrunken log2 fold change” value was 0.123.

For RRIRYRPPRLPRPRPRPQLVPRP, the “shrunken log2 fold change” value was -0.045.

For RRIRWRPPRLPRPRPRPNTTPRP, the “shrunken log2 fold change” value was -0.418.

For RRIRMRPPRLPRPRPRPYCCPRP, the “shrunken log2 fold change” value was -0.348.

In the case of RRIRMRPPRLPRPRPRPNHMPRP, the “shrunken log2 fold change” value is reported as -0.01.

With RRIRYRPPRLPRPRPRPSGKPRP the “shrunken log2 fold change” value was -0.447.

With RRIRERPPRLPRPRPRPNRHPRP the “shrunken log2 fold change” value was -0.516.

In the case of RRIRARPPRLPRPRPRPWYAPRP, the “shrunken log2 fold change” value is reported as -0.307.

For RRIRMRPPRLPRPRPRPYRVPRP, the “shrunken log2 fold change” value was 0.111.

RRIRNRPPRLPRPRPRPHKRPRP was tested, and the “shrunken log2 fold change” value was -0.263.

For RRIRQRPPRLPRPRPRPTHWPRP, the “shrunken log2 fold change” value was 0.427.

In the case of RRIRARPPRLPRPRPRPKCYPRP, the “shrunken log2 fold change” value is reported as 0.00925.

RRIRIRPPRLPRPRPRPGWSPRP was tested, and the “shrunken log2 fold change” value was 0.312.

RRIRNRPPRLPRPRPRPVWQPRP was tested, and the “shrunken log2 fold change” value was 0.285.

In the case of RRIRKRPPRLPRPRPRPDVMPRP, the “shrunken log2 fold change” value is reported as -0.0462.

With RRIRGRPPRLPRPRPRPVMQPRP the “shrunken log2 fold change” value was 0.775.

With RRIRYRPPRLPRPRPRPEAEPRP the “shrunken log2 fold change” value was 0.137.

For RRIRHRPPRLPRPRPRPFSLPRP, the “shrunken log2 fold change” value was -0.277.

With RRIRHRPPRLPRPRPRPGVHPRP the “shrunken log2 fold change” value was -0.9.

With RRIRFRPPRLPRPRPRPDLVPRP the “shrunken log2 fold change” value was -0.0465.

RRIRCRPPRLPRPRPRPATPPRP was tested, and the “shrunken log2 fold change” value was 1.34.

In the case of RRIRWRPPRLPRPRPRPMRQPRP, the “shrunken log2 fold change” value is reported as -0.0376.

In the case of RRIRMRPPRLPRPRPRPLELPRP, the “shrunken log2 fold change” value is reported as 0.337.

In the case of RRIRWRPPRLPRPRPRPMLRPRP, the “shrunken log2 fold change” value is reported as 0.0624.

For RRIRIRPPRLPRPRPRPEYKPRP, the “shrunken log2 fold change” value was -0.978.

In the case of RRIRIRPPRLPRPRPRPPAPPRP, the “shrunken log2 fold change” value is reported as 0.298.

RRIRFRPPRLPRPRPRPTPCPRP was tested, and the “shrunken log2 fold change” value was 0.107.

With RRIRGRPPRLPRPRPRPKDQPRP the “shrunken log2 fold change” value was 0.843.

With RRIRQRPPRLPRPRPRPKMLPRP the “shrunken log2 fold change” value was 0.0996.

In the case of RRIRPRPPRLPRPRPRPFVPPRP, the “shrunken log2 fold change” value is reported as 0.0581.

RRIRHRPPRLPRPRPRPCILPRP was tested, and the “shrunken log2 fold change” value was -0.134.

For RRIRFRPPRLPRPRPRPFCFPRP, the “shrunken log2 fold change” value was -0.343.

With RRIRGRPPRLPRPRPRPLACPRP the “shrunken log2 fold change” value was 0.975.

In the case of RRIRVRPPRLPRPRPRPNSQPRP, the “shrunken log2 fold change” value is reported as -0.131.

RRIRCRPPRLPRPRPRPTLDPRP was tested, and the “shrunken log2 fold change” value was 0.337.

In the case of RRIRIRPPRLPRPRPRPNQPPRP, the “shrunken log2 fold change” value is reported as -0.0903.

With RRIRARPPRLPRPRPRPWVCPRP the “shrunken log2 fold change” value was -0.136.

For RRIRERPPRLPRPRPRPRNNPRP, the “shrunken log2 fold change” value was -0.441.

With RRIRVRPPRLPRPRPRPRFTPRP the “shrunken log2 fold change” value was -0.0651.

With RRIRTRPPRLPRPRPRPTIWPRP the “shrunken log2 fold change” value was 0.03.

With RRIRERPPRLPRPRPRPIIYPRP the “shrunken log2 fold change” value was -0.412.

For RRIRRRPPRLPRPRPRPGGRPRP, the “shrunken log2 fold change” value was 0.295.

In the case of RRIRPRPPRLPRPRPRPFHQPRP, the “shrunken log2 fold change” value is reported as -0.216.

In the case of RRIRPRPPRLPRPRPRPMEWPRP, the “shrunken log2 fold change” value is reported as -0.0225.

RRIRQRPPRLPRPRPRPPEPPRP was tested, and the “shrunken log2 fold change” value was 0.834.

RRIRWRPPRLPRPRPRPMMGPRP was tested, and the “shrunken log2 fold change” value was 0.0383.

With RRIRCRPPRLPRPRPRPMLHPRP the “shrunken log2 fold change” value was -0.378.

With RRIRHRPPRLPRPRPRPGVIPRP the “shrunken log2 fold change” value was -0.0357.

With RRIRWRPPRLPRPRPRPAFLPRP the “shrunken log2 fold change” value was -0.0114.

In the case of RRIRDRPPRLPRPRPRPMQMPRP, the “shrunken log2 fold change” value is reported as 0.467.

With RRIRDRPPRLPRPRPRPRMEPRP the “shrunken log2 fold change” value was -0.239.

RRIRWRPPRLPRPRPRPILEPRP was tested, and the “shrunken log2 fold change” value was -0.548.

With RRIRIRPPRLPRPRPRPFDHPRP the “shrunken log2 fold change” value was -0.225.

In the case of RRIRGRPPRLPRPRPRPRILPRP, the “shrunken log2 fold change” value is reported as 0.404.

RRIRSRPPRLPRPRPRPSVKPRP was tested, and the “shrunken log2 fold change” value was -0.068.

For RRIRDRPPRLPRPRPRPLPGPRP, the “shrunken log2 fold change” value was 0.312.

For RRIRIRPPRLPRPRPRPTCNPRP, the “shrunken log2 fold change” value was -0.313.

RRIRWRPPRLPRPRPRPKHMPRP was tested, and the “shrunken log2 fold change” value was -0.063.

With RRIRPRPPRLPRPRPRPQYQPRP the “shrunken log2 fold change” value was -0.263.

In the case of RRIRLRPPRLPRPRPRPYPRPRP, the “shrunken log2 fold change” value is reported as -0.0678.

With RRIRRRPPRLPRPRPRPFDAPRP the “shrunken log2 fold change” value was 0.44.

RRIRTRPPRLPRPRPRPTQDPRP was tested, and the “shrunken log2 fold change” value was 0.837.

RRIRQRPPRLPRPRPRPWEFPRP was tested, and the “shrunken log2 fold change” value was -0.123.

With RRIRIRPPRLPRPRPRPRMEPRP the “shrunken log2 fold change” value was -0.00396.

With RRIRQRPPRLPRPRPRPDWPPRP the “shrunken log2 fold change” value was 0.416.

For RRIRYRPPRLPRPRPRPAVWPRP, the “shrunken log2 fold change” value was 0.11.

With RRIRQRPPRLPRPRPRPNFWPRP the “shrunken log2 fold change” value was -0.00668.

For RRIRTRPPRLPRPRPRPFCQPRP, the “shrunken log2 fold change” value was 0.101.

In the case of RRIRSRPPRLPRPRPRPLKNPRP, the “shrunken log2 fold change” value is reported as -0.347.

For RRIRPRPPRLPRPRPRPHCTPRP, the “shrunken log2 fold change” value was -0.479.

With RRIRPRPPRLPRPRPRPECVPRP the “shrunken log2 fold change” value was 0.541.

In the case of RRIRIRPPRLPRPRPRPPYLPRP, the “shrunken log2 fold change” value is reported as -0.612.

For RRIRFRPPRLPRPRPRPCGAPRP, the “shrunken log2 fold change” value was 0.0828.

With RRIRHRPPRLPRPRPRPKTRPRP the “shrunken log2 fold change” value was -0.0214.

RRIRYRPPRLPRPRPRPICAPRP was tested, and the “shrunken log2 fold change” value was -0.211.

For RRIRMRPPRLPRPRPRPVGIPRP, the “shrunken log2 fold change” value was 0.158.

With RRIRMRPPRLPRPRPRPDYAPRP the “shrunken log2 fold change” value was 0.263.

For RRIRTRPPRLPRPRPRPQWNPRP, the “shrunken log2 fold change” value was -0.832.

With RRIRIRPPRLPRPRPRPCPSPRP the “shrunken log2 fold change” value was -0.186.

RRIRQRPPRLPRPRPRPYDSPRP was tested, and the “shrunken log2 fold change” value was -0.00804.

With RRIRHRPPRLPRPRPRPNFHPRP the “shrunken log2 fold change” value was -0.407.

With RRIRCRPPRLPRPRPRPSFGPRP the “shrunken log2 fold change” value was -0.496.

In the case of RRIRYRPPRLPRPRPRPWWQPRP, the “shrunken log2 fold change” value is reported as -0.00151.

RRIRMRPPRLPRPRPRPDFKPRP was tested, and the “shrunken log2 fold change” value was -0.11.

RRIRQRPPRLPRPRPRPMMRPRP was tested, and the “shrunken log2 fold change” value was 0.109.

RRIRHRPPRLPRPRPRPVPIPRP was tested, and the “shrunken log2 fold change” value was 0.0935.

RRIRPRPPRLPRPRPRPLLWPRP was tested, and the “shrunken log2 fold change” value was 0.0186.

For RRIRKRPPRLPRPRPRPTPAPRP, the “shrunken log2 fold change” value was 1.41.

For RRIRMRPPRLPRPRPRPQNFPRP, the “shrunken log2 fold change” value was 0.0982.

For RRIRPRPPRLPRPRPRPRPMPRP, the “shrunken log2 fold change” value was 0.513.

With RRIRSRPPRLPRPRPRPMPIPRP the “shrunken log2 fold change” value was -0.109.

In the case of RRIRKRPPRLPRPRPRPFKAPRP, the “shrunken log2 fold change” value is reported as -0.111.

With RRIRGRPPRLPRPRPRPAPGPRP the “shrunken log2 fold change” value was 1.12.
